# Assay results from paper PMC11018352, “Guanidine production by plant homoarginine-6-hydroxylases” (eLife, 2024).
# T1: Din11s (2-ODD-C23.2, short variant of Din11) (Arabidopsis thaliana, UniProt Q8H113)
# T1 construct: gene 2ODDC23.2
# T1 sequence (Q8H113 26-357): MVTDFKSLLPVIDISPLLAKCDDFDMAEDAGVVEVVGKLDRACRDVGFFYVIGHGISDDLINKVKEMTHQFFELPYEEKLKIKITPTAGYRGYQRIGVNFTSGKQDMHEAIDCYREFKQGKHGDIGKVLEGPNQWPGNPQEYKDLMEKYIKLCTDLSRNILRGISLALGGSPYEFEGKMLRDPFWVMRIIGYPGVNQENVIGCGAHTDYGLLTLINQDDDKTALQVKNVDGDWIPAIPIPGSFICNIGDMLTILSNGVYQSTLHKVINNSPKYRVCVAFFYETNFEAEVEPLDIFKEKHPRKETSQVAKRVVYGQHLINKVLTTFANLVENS
# T2: At3g50210 (2-ODD-C23.1) (Arabidopsis thaliana, UniProt Q84MB6)
# T2 construct: gene 2ODDC23.1
# T2 sequence (Q84MB6 1-332): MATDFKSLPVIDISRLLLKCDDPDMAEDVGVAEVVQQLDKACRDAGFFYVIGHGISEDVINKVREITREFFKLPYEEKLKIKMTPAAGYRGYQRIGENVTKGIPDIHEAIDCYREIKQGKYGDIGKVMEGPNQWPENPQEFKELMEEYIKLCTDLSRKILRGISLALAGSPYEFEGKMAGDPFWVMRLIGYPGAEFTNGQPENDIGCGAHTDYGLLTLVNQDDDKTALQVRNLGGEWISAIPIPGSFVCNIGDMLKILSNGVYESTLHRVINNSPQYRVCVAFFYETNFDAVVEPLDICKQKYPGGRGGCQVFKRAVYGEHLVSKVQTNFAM
# T3: Gm2-ODD-C23 (soybean 2-ODD-C23) (Glycine max, UniProt A0A0R4J5R0)
# T3 construct: gene 2ODDC23
# T3 sequence (A0A0R4J5R0 1-331): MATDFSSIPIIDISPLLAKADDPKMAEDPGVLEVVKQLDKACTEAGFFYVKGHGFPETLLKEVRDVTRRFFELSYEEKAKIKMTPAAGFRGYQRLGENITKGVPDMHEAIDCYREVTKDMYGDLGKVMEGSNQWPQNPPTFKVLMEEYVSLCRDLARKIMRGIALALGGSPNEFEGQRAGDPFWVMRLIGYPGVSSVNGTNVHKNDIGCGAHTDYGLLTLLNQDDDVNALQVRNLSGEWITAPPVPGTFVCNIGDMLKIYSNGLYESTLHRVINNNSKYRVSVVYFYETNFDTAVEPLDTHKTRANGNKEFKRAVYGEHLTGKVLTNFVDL
# T4: 2-ODD33 (Os2-ODD33, rice 2-ODD-C23 ortholog) (Oryza sativa, UniProt Q6K332)
# T4 sequence (Q6K332 1-328): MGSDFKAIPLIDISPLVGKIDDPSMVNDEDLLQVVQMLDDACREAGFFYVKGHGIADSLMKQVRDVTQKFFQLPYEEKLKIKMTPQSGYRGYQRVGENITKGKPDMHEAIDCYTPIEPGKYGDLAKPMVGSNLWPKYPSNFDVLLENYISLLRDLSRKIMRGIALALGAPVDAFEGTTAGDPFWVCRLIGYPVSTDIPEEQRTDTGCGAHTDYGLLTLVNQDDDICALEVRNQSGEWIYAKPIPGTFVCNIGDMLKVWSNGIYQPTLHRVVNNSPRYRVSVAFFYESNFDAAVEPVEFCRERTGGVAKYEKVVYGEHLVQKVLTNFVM
# B1: AtALDH7B4 (At1g54100, AASA-DH) (Arabidopsis thaliana) (protein)
# chain: MGSANNEYEFLSEIGLTSHNLGSYVAGKWQANGPLVSTLNPANNQPIAQVVEASLEDYEQGLKACEEAAKIWMQVTAPKRGDIVRQIGDALRSKLDYLGRLLSLEMGKILAEGIGEVQEVIDMCDFAVGLSRQLNGSVIPSERPNHMMLEMWNPLGIVGVITAFNFPCAVLGWNACIALVCGNCVVWKGAPTTPLITIAMTKLVAEVLEKNNLPGAIFTAMCGGAEIGEAIAKDTRIPLVSFTGSSRVGSMVQQTVNARSGKTLLELSGNNAIIVMDDADIQLAARSVLFAAVGTAGQRCTTCRRLLLHESVYDKVLEQLLTSYKQVKIGNPLEKGTLLGPLHTPESKKNFEKGIEVIKSQGGKILTGGKAVEGEGNFVEPTIIEISADAAVVKEELFAPVLYVLKFKSFGEAVAINNSVPQGLSSSIFTRNPENIFRWIGPLGSDCGIVNVNIPTNGAEIGGAFGGEKATGGGREAGSDSWKQYMRRSTCTINYGNELPLAQGINFG
# B2: At3g49630 (2-ODD-C23.3) (Arabidopsis thaliana) (protein)
# chain: MATNFKSLLPVIDISPLVVKCDDANMAEDAGVAEVVGKLDRACRDAGFFYVIGHGISEDFIRKVRVMSHQFFELPYEEKLKIKITPAAGYRGYQRIGLNLTNGKQDMHEAIDCYKEFKQGKHGDIGKVMEGANQWPENPQEYKELMEEYIKLCIDLSRNILRGISLALGGSPYEFEGKMLTDPFWIMRILGYPGVNQENVIGCGAHTDYGLLSLINQDDDKTALQVRDLAGDWIPVIPIPGSFVCNIGDMLKILSNGVYESTLHRVINNSPRYRVCVGFFYETNFDAAVEPLDIFKEKYPGKGTSQVFKRVVYGEHLVHKLQTTFQNLVEHS
# notes: b44 prints At3g49620, apparently a slip for At3g49630
# B3: OsP5CR (pyrroline-5-carboxylate reductase from rice) (Oryza sativa Japonica Group) (protein)
# chain: MAAPPQPVPAPAAASPEVFRLGFIGPGNLAESIARGVAASGVLPATAIRTAPHRRPERAEAFSSIGAHILETNAQVVDDSDVIVISVKPQIVRQVLVELKPLLSEEKLLVSIAAGIKMEDLQGWSGHRRFIRVMPNTPSAVGQAASVMCLGEMATENDENRVRSLFSAIGKVWTAEEKYFDAVTGLSGSGPAYIFLAIEAMADGGVAAGLPRDLALGLASQTVLGAATMVNKTGKHPGQLKDMVTSPAGTTITGIQELEKGAFRGTLINAVVAATKRCRELSQS
# notes: recombinant, purified
# B4: Din11s (2-ODD-C23.2, short variant of Din11) (Arabidopsis thaliana) (protein)
# chain: MVTDFKSLLPVIDISPLLAKCDDFDMAEDAGVVEVVGKLDRACRDVGFFYVIGHGISDDLINKVKEMTHQFFELPYEEKLKIKITPTAGYRGYQRIGVNFTSGKQDMHEAIDCYREFKQGKHGDIGKVLEGPNQWPGNPQEYKDLMEKYIKLCTDLSRNILRGISLALGGSPYEFEGKMLRDPFWVMRIIGYPGVNQENVIGCGAHTDYGLLTLINQDDDKTALQVKNVDGDWIPAIPIPGSFICNIGDMLTILSNGVYQSTLHKVINNSPKYRVCVAFFYETNFEAEVEPLDIFKEKHPRKETSQVAKRVVYGQHLINKVLTTFANLVENS
# B5: At3g50210 (2-ODD-C23.1) (Arabidopsis thaliana) (protein)
# chain: MATDFKSLPVIDISRLLLKCDDPDMAEDVGVAEVVQQLDKACRDAGFFYVIGHGISEDVINKVREITREFFKLPYEEKLKIKMTPAAGYRGYQRIGENVTKGIPDIHEAIDCYREIKQGKYGDIGKVMEGPNQWPENPQEFKELMEEYIKLCTDLSRKILRGISLALAGSPYEFEGKMAGDPFWVMRLIGYPGAEFTNGQPENDIGCGAHTDYGLLTLVNQDDDKTALQVRNLGGEWISAIPIPGSFVCNIGDMLKILSNGVYESTLHRVINNSPQYRVCVAFFYETNFDAVVEPLDICKQKYPGGRGGCQVFKRAVYGEHLVSKVQTNFAM
# How the values were obtained:
# [1] = biological target: T1, Din11s (2-ODD-C23.2, short variant of Din11); assay: inhibition of homoarginine-dependent O2 consumption; type: biochemical; details: competitive versus homoarginine; 1 mM canavanine, 0.5 mM 2-oxoglutarate, pH 7.2, 30 °C
# At3g50210 (2-ODD-C23.1) = biological target: T2, At3g50210 (2-ODD-C23.1); assay: as above; type: biochemical; details: 0.5 mM 2-oxoglutarate, pH 7.2, 30 °C
# [2] = biological target: T3, Gm2-ODD-C23 (soybean 2-ODD-C23); assay: guanidine production in expressing E. coli culture, LC-MS; type: cell-based; details: 1 mM homoarginine in medium, 18 °C overnight
# [3] = biological target: T4, 2-ODD33 (Os2-ODD33, rice 2-ODD-C23 ortholog); assay: as above; type: cell-based; details: 1 mM homoarginine in medium, 18 °C overnight
# [4] = substrate: NC(=O)c1ccc[n+]([C@@H]2O[C@H](COP(=O)(O)OP(=O)(O)OC[C@H]3O[C@@H](n4cnc5c(N)ncnc54)[C@H](O)[C@@H]3O)[C@@H](O)[C@H]2O)c1; assay: NAD+ reduction, spectrophotometric; type: biochemical, Arabidopsis thaliana; details: 1 mM AASA/P6C, pH 7.5, 35 °C, varied: cofactor
# [5] = substrate: N[C@@H](CCCC=O)C(=O)O; assay: NAD+ reduction, spectrophotometric; type: biochemical, Arabidopsis thaliana; details: 1 mM NAD+, pH 7.5, 35 °C, substrate is the AASA/P6C equilibrium mixture
# [6] = substrate: N=C(N)NCCCC[C@H](N)C(=O)O; assay: O2 consumption, Clark-type electrode; type: biochemical, Arabidopsis thaliana; details: 0.5 mM 2-oxoglutarate, Fe2+, ascorbate, pH 7.2, 30 °C
# [7] = substrate: O=C(O)[C@@H]1CCCC=N1; assay: NADH oxidation, spectrophotometric; type: biochemical, Oryza sativa; details: NADH as electron donor (fixed 1 mM), pH 7.5, 35 °C
# [8] = substrate: N=C(N)NCCC[C@H](N)C(=O)O; assay: O2 consumption, Clark-type electrode; type: biochemical, Arabidopsis thaliana; details: 0.5 mM 2-oxoglutarate, Fe2+, ascorbate, pH 7.2, 30 °C
molecule,measurement,setting,value
N=C(N)NOCC[C@H](N)C(=O)O [canavanine],inhibition of homoarginine-dependent O2 consumption,[1],canavanine showed competitive inhibition of the reaction of Din11s with homoarginine
same,inhibition of homoarginine-dependent O2 consumption,"At3g50210 (2-ODD-C23.1); mixed type versus homoarginine, 1 mM canavanine",the inhibition of At3g50210 was of the mixed type
N=C(N)NCCC[C@H](N)C(=O)O [arginine],inhibition of homoarginine-dependent O2 consumption,"At3g50210 (2-ODD-C23.1); competitive versus homoarginine, 1 mM arginine",we detected a competitive inhibition of Din11s and At3g50210
N=C(N)NCCCC[C@H](N)C(=O)O [homoarginine],"guanidine production in expressing E. coli culture, LC-MS",[2],orthologs from soybean and rice (2-ODD33) mediated homoarginine-dependent guanidine accumulation
same,"guanidine production in expressing E. coli culture, LC-MS",[3],orthologs from soybean and rice (2-ODD33) mediated homoarginine-dependent guanidine accumulation
B1,Km,[4],324 ± 17 µM
same,Km,[5],11.9 ± 1.0 µM
B2,Km,[6],4600 ± 200 µM
B3,Km,[7],173 ± 18 µM
B4,Km,[6],1900 ± 300 µM
same,Km,[8],6000 ± 5100 µM
B5,Km,[6],780 ± 150 µM
